# In US6800481B1, “Stable macroscopic membranes formed by self-assembly of amphiphilic peptides and uses therefor” (priority 1992, dated 2004):
# Entries after “also recorded” stand apart in the source; their conditions may differ.
# Columns and labels:
# [1] = Testing of peptides for macroscopic membrane formation (phase-contrast microscope, Congo Red staining); format: physicochemical; conditions: for membranous structure in DMEM: DMEM medium; for formation of macroscopic membranes: identical conditions, in words
# From the text: The effect of length and sequence on membrane formation was examined using several peptides (Table 1 and Example 3). […] Very long peptides, e.g., of about 200 amino acids, may encounter problems due to insolubility and intramolecular interactions which destabilize membrane formation. […] The optimal lengths for membrane formation will probably vary with the amino acid composition.
# The EAK12 and EAK16 tested for membrane formation were acetylated and aminylated at both N- and C-terminal ends. […] The peptides were initially dissolved in water (5 mg/ml) or in 23% acetonitrile (10 mg/ml). A volume of 5-10 microliters of the dissolved peptides were applied to the DMEM medium, PBS or water. The formation of the membrane was first observed under a phase-contrast microscope and then, by the naked eye after staining with Congo Red.
# B-DNA = assay: Binding of small peptides to B-DNA and conversion to the Z conformation; format: biochemical
# From the text: A subportion of this histone-like region from amino acids 306 to 339 (heavily underlined in FIG. 1) is a likely candidate for a DNA-binding domain. […] The KAKAX motif (SEQ ID NO: 31) (where X is variable) occurs twice in the 306-339 region and also occurs in the peptide, EAK16. These observations are consistent with the structural similarity of this region to histone H1.
# [2] = format: physicochemical
# Method: Circular dichroism (CD) spectra were taken on an Aviv Model 60DS spectropolarimeter using program 60HDS for data processing. Because EAK16 contains both positively and negatively charged residues, the peptide itself can serve as a buffer. CD samples were prepared and measured at 25° C., unless otherwise indicated. All reagents were ultrapure and solutions were filtered through a […] before use. Circular dichroism (CD) spectroscopy was used to monitor the stability of the β-sheet structure of EAK16 under various conditions. Dilute […] concentrations. […] A 3 mM stock EAK16 solution was mixed in water to a concentration of 20 μM, allowed to equilibrate, and the CD spectrum measured. The solution was then diluted five times by two-fold serial dilutions to final concentrations of […], 10, 5.0, 2.5, 1.25 and 0.625 μM, allowed to equilibrate and CD spectra taken. […] Temperature. The CD spectra of 8 μM EAK16 at 25, 37, 55, 70 and 90° C. in water were measured. […] EAK16 has a calculated pI Of 6.71. It was assumed that changes of pH would have a great effect on the β-sheet structure, especially when the charged groups are neutralized. […] The 3 mM stock solution of EAK16 was mixed with pH buffers at pH 1.5, 3, 7, and 11 to a final concentration of 10 μM and allowed to equilibrate for 4 hours before taking CD measurements. […] Chemical denaturants. […] The peptide (3 mM stock) was mixed with water or different concentrations of guanidine-HCl or urea and allowed to incubate overnight before taking CD measurements. SDS was added to a peptide solution to a final concentration of 0.1% and incubated for 30 minutes.
# [3] = tested on: poly(dG-m^5dC) in the Z-form; assay: Gel retardation (band shift) and competition assay for Z-DNA binding; conditions: for competition of binding to poly(dG-m^5dC) by non-Z DNA: excess poly(dG-dC), poly(dA-dT), salmon sperm DNA; for affinity for Z-DNA relative to B-DNA: not purified to homogeneity, estimated
# From the text: Two probes that can be stabilized in the Z-form were used to detect potential Z-DNA binding proteins. One is an ˜600 bp fragment of ^32P-labelled poly(dG-m^5dC) that is stabilized in the Z-DNA form by millimolar concentrations of MgCl2 (Behe and Felsenfeld, 1981); the other is an oligonucleotide, [^32P] (dG-BR^5dC)22, that can be stabilized by millimolar concentrations of MgCl2 or μM concentrations of Co(NH3)6^3+. Yeast whole cell extract, nuclear extracts, and phosphocellulose column fractions of yeast nuclear extracts were assayed by a gel retardation assay using either of these ^32P-labelled DNA fragments as a probe. The gel retardation assay was carried out with the probe in the presence of 10 mM MgCl2 and a 400-fold excess of sheared salmon sperm B-DNA. Under these conditions, the polymer assumes the Z-DNA conformation. A Z-DNA-specific antibody was used for positive control. 1 μl of each fraction of yeast nuclear extract obtained by salt elution from the phosphocellulose column with 0.2-0.5 M potassium phosphate (pH 7.4) was added to the assays.
# In order to determine if these band shifts were the result of authentic Z-DNA binding, negatively supercoiled plasmids of pUC19 and pUC19(GC) were used as competitor DNAs in gel retardation competition assays. In these assays, [^32P] (dG-Br^5dC)22 was incubated in the presence of a 2000-fold excess of sheared salmon sperm DNA with additions as follows: 1) no addition; 2) a monoclonal anti-Z-DNA antibody (mAb); 3) mAb plus additional 50 ng of negatively supercoiled plasmid pUC19 (without a Z-DNA insert); 4) mAb plus 25 ng of negatively supercoiled pUC19(CG) (containing a Z-DNA segment); 5) fraction F1 yeast protein; 6) F1 plus additional 50 ng pUC19; and 7) F1 plus pUC19(GC). pUC19(GC) contains a 14 bp (dG-dC)7 insert that can adopt the Z-conformation upon negative supercoiling. pUC19(GC) was assayed for its resistance to BssHII digestion (Vardimon and Rich, 1983; Azorin et al., 1984) to confirm the presence of the Z-DNA prior to the assay.
# However, enough material was in solution so that crude cell extracts and partially purified zuotin could be prepared and assayed by the band shift assay. Recombinant zuotin was partially purified by chromatography of crude cell extract from induced pETZU01 transformants through phosphocellulose. ^32P-labelled poly(dG-m5dC) in the Z-form was incubated with the crude cell extract or with partially purified zuotin in the presence of sheared salmon sperm DNA, poly(dG-dC), or poly(dG-Br^5dC). Assays were run on: 1) labelled probe alone; 2) crude cell extract from induced pET8c transformants; 3) crude cell extract from uninduced pETZU01 transformants; 4) crude cell extract from induced pETZU01 transformants; 5) partially purified recombinant zuotin; 6) partially purified yeast zuotin; 7)-10) partially purified recombinant zuotin with 20-, 40-, 100-, and 200-fold excess of salmon sperm DNA; 11)-12) partially purified recombinant zuotin with 20- and 40-fold excess of poly(dG-dC); 13)-14) partially purified recombinant zuotin with 20- and 40-fold excess of poly(dG-Br^5dC); 15)-17) partially purified yeast zuotin with 20-, 40-, and 200-fold excess of salmon sperm DNA; 18) partially purified yeast zuotin with 40-fold excess of poly(dG-dC); 19) partially purified yeast zuotin with 40-fold excess of poly(dG-Br^5dC); and 20) an anti-Z-antibody (as control).
# A gel retardation assay was employed to detect proteins with affinity to left-handed Z-DNA. […]
Molecule,membranous structure in DMEM [1],membranous structure in PBS [1],formation of macroscopic membranes [1],membranous structure in Water [1],binding to B-DNA and conversion to Z-DNA (B-DNA),further results
"H2N-ARARADAD-COOH (H-ARARADAD-OH) [ARD8, 8 amino acid counterpart of RAD16]",−,−,did not form macroscopic membranes,−,,
KAHAK,,,,,active in converting B-DNA to Z-DNA only when the histidine was protonated (at low pH),
Ac-HN-AEAKAEAEAKAK-CONH2 (Ac-AEAKAEAEAKAK-NH2) [EAK12],,+,able to associate to a much smaller extent and formed small and non-uniform pieces of membranous material,−,,"secondary structure and its stability [2]: denature from a β-sheet structure at high temperatures; Structure ([2]; secondary structure): α, β"
"H2N-RPKQQFGLM-COHN2 (H-RPKQQFGLM-NH2) [Substance p, reference compound]",−,−,None of these peptides produced macroscopic membranes,−,,
H2N-AEAEAKAK-COOH (H-AEAEAKAK-OH) [EAK8],−,−,did not form membranes,−,,secondary structure and its stability [2]: random coil structure
KAKAK,,,,,able to bind to B-DNA and convert it to the Z conformation,
"H2N-GSNKGAIIGLM-CONH2 (H-GSNKGAIIGLM-NH2) [β-Amyloid (25-35), reference compound]",−,−,None of these peptides produced macroscopic membranes,−,,
KAK,,,,,able to bind to B-DNA and convert it to the Z conformation,
"zuotin: 433 amino acid yeast putative Z-DNA binding protein, SEQ ID NO: 2 (protein) MFSLPTLTSDITVEVNSSATKTPFVRRPVEPVGKFFLQHAQRTLRNHTWSEFERIEAEKNVKTVDESNVDPDELLFDTELADEDLLTHDARDWKTADLYAAMGLSKLRFRATESQIIKAHRKQVVKYHPDKQSAAGGSLDQDGFFKIIQKAFETLTDSNKRAQYDSCDFVADVPPPKKGTDYDFYEAWGPVFEAEARFSKKTPIPSLGNKDSSKKEVEQFYAFWHRFDSWRTFEFLDEDVPDDSSNRDHKRYIERKNKAARDKKKTADNARLVKLVERAVSEDPRIKMFKEEEKKEKERRKWEREAGARAEAEAKAKAEAEAKAKAESEAKANASAKADKKKAKEAAKAAKKKNKRAIRNSAKEADYFGDADKATTIDEQVGLIVDSLNDEELVSTADKIKANAAGAKEVLKESAKTIVDSGKLPSSLLSYFV",,,,,,"excess of poly(dG-Br^5dC) in the Z-form that completely inhibits binding to the probe [3]: 4 fold; competition of binding to poly(dG-m^5dC) by non-Z DNA [3]: cannot be competed by 40-fold excess of poly(dG-dC), 200-fold excess of poly(dA-dT), nor several thousand-fold of salmon sperm DNA; affinity for Z-DNA relative to B-DNA ([3]; listed as yeast zuotin): bound Z-DNA more tightly than the bacterially expressed zuotin; also recorded: several hundred-fold enhanced affinity for Z-DNA relative to B-DNA"
"bacterially expressed zuotin: zuotin expressed in E. coli with T7 pET system, Phe→Val after Met (protein, UniProt P32527 1-433, looked up, variant F2V) Zuotin: MVSLPTLTSDITVEVNSSATKTPFVRRPVEPVGKFFLQHAQRTLRNHTWSEFERIEAEKNVKTVDESNVDPDELLFDTELADEDLLTHDARDWKTADLYAAMGLSKLRFRATESQIIKAHRKQVVKYHPDKQSAAGGSLDQDGFFKIIQKAFETLTDSNKRAQYDSCDFVADVPPPKKGTDYDFYEAWGPVFEAEARFSKKTPIPSLGNKDSSKKEVEQFYAFWHRFDSWRTFEFLDEDVPDDSSNRDHKRYIERKNKAARDKKKTADNARLVKLVERAVSEDPRIKMFKEEEKKEKERRKWEREAGARAEAEAKAKAEAEAKAKAESEAKANASAKADKKKAKEAAKAAKKKNKRAIRNSAKEADYFGDADKATTIDEQVGLIVDSLNDEELVSTADKIKANAAGAKEVLKESAKTIVDSGKLPSSLLSYFV",,,,,,"competition of binding to poly(dG-m^5dC) by non-Z DNA [3]: cannot be competed by 40-fold excess of poly(dG-dC), 200-fold excess of poly(dA-dT), nor several thousand-fold of salmon sperm DNA; affinity for Z-DNA relative to B-DNA [3]: binds less tightly"
